Columns and labels:
[1] = target: Aleuria aurantia lectin (Aleuria aurantia) (UniProt P18891); test: BLI; competition with L-Fuc: AAL-loaded biosensor blocked with 0.1 M L-Fuc in the second baseline step, and the mucin sample incubated with L-Fuc (BSM 1 μM to 0.1 M; MUC5B 1 μM to 100 μM)
[2] = target: Aleuria aurantia lectin (Aleuria aurantia) (UniProt P18891); test: BLI; biotinylated AAL (1.5 μg/mL) loaded on High Precision Streptavidin (SAX) biosensors, mucin in solution; Octet RED96, kinetics mode, 25°C, 1000 rpm, sample diluent

UniProt P18891, sequence (P18891 whole entry): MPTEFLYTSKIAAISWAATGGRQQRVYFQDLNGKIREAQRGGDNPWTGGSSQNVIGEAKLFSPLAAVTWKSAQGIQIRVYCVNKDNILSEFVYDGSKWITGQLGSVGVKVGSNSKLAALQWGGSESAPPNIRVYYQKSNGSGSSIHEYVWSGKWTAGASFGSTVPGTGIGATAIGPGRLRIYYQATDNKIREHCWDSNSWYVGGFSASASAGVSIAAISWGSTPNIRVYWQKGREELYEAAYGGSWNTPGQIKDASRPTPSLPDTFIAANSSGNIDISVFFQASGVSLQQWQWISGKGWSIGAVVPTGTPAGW

## Bovine Submaxillary Mucin (natural protein)
[1]
  fold lower association with 100 μM Fuc than without Fuc: 5 times lower
[2]
  fold lower binding response than MUC5B: 10 times lower
